The text below walks through data of patent publication US20250163127A1.

For assay [1], the target named is CD2 (human) (UniProt P06729).
Target sequence in this assay (P06729 25-351): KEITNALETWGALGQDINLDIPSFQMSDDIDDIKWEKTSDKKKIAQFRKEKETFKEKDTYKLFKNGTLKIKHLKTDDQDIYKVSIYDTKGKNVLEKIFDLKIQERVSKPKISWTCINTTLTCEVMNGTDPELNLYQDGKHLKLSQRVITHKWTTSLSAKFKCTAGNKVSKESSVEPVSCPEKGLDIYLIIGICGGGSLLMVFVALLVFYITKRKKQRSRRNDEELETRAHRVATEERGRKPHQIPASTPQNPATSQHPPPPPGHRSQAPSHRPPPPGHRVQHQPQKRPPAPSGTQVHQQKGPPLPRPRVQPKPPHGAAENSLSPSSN
Assay [2] has as its target CD2 (human) (UniProt P06729). Put plainly: flow cytometry, CHO-CD2 cells. (In flow cytometry, cells or beads pass a laser one at a time.)
Target sequence in this assay (P06729 25-351 limits assumed): as the sequence (P06729 25-351) above
For assay [3], the target named is CTLA-4 (Homo sapiens (Human)) (UniProt P16410). Put plainly: flow cytometry, transfected cells.
The target of assay [4] is ICOS (Homo sapiens (Human)) (UniProt Q9Y6W8). Put plainly: flow cytometry, transfected cells.
Chain of ICOS (Homo sapiens (Human)) (Q9Y6W8 21-199 limits assumed): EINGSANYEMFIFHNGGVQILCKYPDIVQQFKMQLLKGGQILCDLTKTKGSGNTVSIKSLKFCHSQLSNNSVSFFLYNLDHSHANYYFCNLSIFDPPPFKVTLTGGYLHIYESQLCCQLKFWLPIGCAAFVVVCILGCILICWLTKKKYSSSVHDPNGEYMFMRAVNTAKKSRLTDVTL
In assay [5] the target is CTLA-4 (Homo sapiens (Human)) (UniProt P16410). Put plainly: flow cytometry, transfected cells. This is another data set of the same source.
The target in assay [6] is ICOS (Homo sapiens (Human)) (UniProt Q9Y6W8). Put plainly: flow cytometry, transfected cells. This is another data set of the same source.
Assay [7] concerns the target CTLA-4 (Homo sapiens (Human)) (UniProt P16410). Put plainly: flow cytometry, transfected cells. The source holds these as a separate data set.
Assay [8] has as its target ICOS (Homo sapiens (Human)) (UniProt Q9Y6W8). Put plainly: flow cytometry, transfected cells. This is another data set of the same source.

Where two headings read alike, the source gives them in different places.

Chain of Wildtype ICOSL ECD-Fc (Fc fusion) (chain): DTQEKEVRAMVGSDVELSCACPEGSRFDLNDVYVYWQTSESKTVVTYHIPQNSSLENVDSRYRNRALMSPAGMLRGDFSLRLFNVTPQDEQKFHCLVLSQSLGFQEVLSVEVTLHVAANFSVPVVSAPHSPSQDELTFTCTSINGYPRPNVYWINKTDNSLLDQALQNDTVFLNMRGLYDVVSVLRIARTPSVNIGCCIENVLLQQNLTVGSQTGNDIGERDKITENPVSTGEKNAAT
Chain of CTLA-4 (Homo sapiens (Human)) (P16410 36-223): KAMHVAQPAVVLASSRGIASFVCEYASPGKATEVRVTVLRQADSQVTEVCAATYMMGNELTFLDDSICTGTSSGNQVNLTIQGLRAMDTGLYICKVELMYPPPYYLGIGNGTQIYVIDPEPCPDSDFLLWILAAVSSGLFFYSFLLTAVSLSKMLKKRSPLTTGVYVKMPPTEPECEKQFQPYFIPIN

What is called EC50 is the concentration at which the effect is half-maximal. In the assay with CD2 (human) [1], CD58 (WT) 3650-Fc (Fc fusion) displayed a 100 nM IFN-gamma (pg/mL), SEB assay of 9660 pg/mL. In addition, the half-maximal effective concentration (EC50) with CD2 (human) [2] was 0.2 nM.

Consider Wildtype ICOSL ECD-Fc (Fc fusion), for which the MFI worked out at 4770 MFI in assay [3]; 83800 MFI in assay [4]; 3800 MFI in assay [5]; 36600 MFI in assay [6]; 330000 MFI in assay [7]; 212000 MFI in assay [8].
